This is an account of results in patent US12281340B2, “Method of producing N-acyl-amino group-containing compound” (AJINOMOTO CO., INC., priority 2018, dated 2025).

Assay type in all cases: biochemical
Experiment [1] can be described thus: Quantification of produced N-acylamino acid (UV 210 nm) using purified acylamino acid synthetase. The settings on record: 5 mM sodium fatty acid, 200 μg/mL enzyme, 25° C., 24 hours. On the procedure: 0.1 mL of a reaction solution containing 50 mM Tris-HCl, 5 mM amino acid, 5 mM sodium fatty acid, 10 mM ATP, 10 mM MgCl2, 1 mM DTT, 200 μg/mL of the purified enzyme, pH 8.0 was incubated at 25° C. for 24 hours. As amino acids, L-Asp was used in AtGH3-6, OsGH3-8, AtGH3-5, AtGH3-12, and Gly or L-Ala was used in CfHP. After completion of the reaction, 0.4 mL of the reaction stop solution (1% (v/v) phosphoric acid, 75% (v/v) methanol) was added, and the mixture was filtrated through the filter followed by being subjected to the UPLC-MS analysis to quantify the produced N-acylamino acid by detection at UV 210 nm. The condition for the UPLC-MS analysis is as descried in Example 2. As a result of the analysis, 3.9 mM of Nα-capryloyl-L-aspartic acid, 4.5 mM of Nα-caprinoyl-L-aspartic acid and 2.2 mM of Nα-lauroyl-L-aspartic acid were detected when AtGH3-6 was used; 4.3 mM of Nα-capryloyl-L-aspartic acid, 4.6 mM of Nα-caprinoyl-L-aspartic acid and 3.5 mM of Nα-lauroyl-L-aspartic acid were detected when OsGH3-8 was used; 4.1 mM of Nα-capryloyl-L-aspartic acid, 4.6 mM of Nα-caprinoyl-L-aspartic acid and 2.5 mM of Nα-lauroyl-L-aspartic acid were detected when AtGH3-5 was used; 1.6 mM of Nα-capryloyl-L-aspartic acid, 0.6 mM of Nα-caprinoyl-L-aspartic acid and 0.2 mM of Nα-lauroyl-L-aspartic acid were detected when AtGH3-12 was used; 4.5 mM of Nα-capryloylglycine, 4.6 mM of Nα-caprinoylglycine, 0.1 mM of Nα-lauroylglycine, 3.1 mM of Nα-capryloyl-L-alanine, 3.6 mM of Nα-caprinoyl-L-alanine and 0.4 mM of Nα-lauroyl-L-alanine were detected when CfHP was used.

A short description of experiment [2]: Synthesis of N-acylamino acids from various fatty acids using purified acylamino acid synthetase, UPLC-MS detection. More on the design: key: +: Detected; −: Not detected. In short, it runs like this: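 Purified enzyme (200 μg/mL) with 5 mM amino acid, 5 mM sodium fatty acid (3 mM palmitate or stearate, plus 10% methanol), 10 mM ATP, 10 mM MgCl2, 1 mM DTT in 50 mM Tris-HCl pH 8.0, shaken 24 h at 25 °C. Amino acid varied by enzyme; product mass detected by UPLC-MS (ESI-negative).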

A short description of experiment [3]: Synthesis of N-caprinoyl-amino acid derivative, N-caprinoyl-D-amino acid and N-caprinoyl-peptide using purified acylamino acid synthetase, UPLC-MS detection. More on the design: key: +: Detected; −: Not detected. The settings on record: +ATP. In short, it runs like this: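 Purified enzyme (50 μg/mL) was incubated with 5 mM sodium caprate, 5 mM amino acid derivative, D-amino acid or peptide, 10 mM ATP, 10 mM MgCl2 and 1 mM DTT in 50 mM Tris-HCl, pH 8.0, for 24 h at 25 °C. After acidic methanol stop, UPLC-MS looked for the mass of the N-caprinoyl product.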

B1: CfHP: hypothetical protein from Cystobacter fuscus (GH3 protein), His-tagged (protein, listed as Cystobacter fuscus)
chain: MQAAGRRDKQRFIEQTRHVARVNVDTLRAILQHNRDTDFGRRHGFASLRTVEDFQRALPVSTYEPFRPYMERIARGEQNVLTADRVEYLGITSGTTGQRKLLPVSRPHLENMRRTMMIGRAVVTEKVPAARRPSRGMILMNAVLRERSEGGLLTGALTAISTHSMGRAASFAFTSPPEAFRLRKHADALYLHLLFGLRERELGTLMAPFASGLLDMVHLLERRGADLVDDIARGVLRPELDLEPEQRRLLQSRLLPDPERAREVSQALEQGPHGLLRRLWPRLAYVSSITGASFSLYTRQLTPYLEGVPLSAASYVSTEGILGVPLELEQAVYCLMVGMAFFEFIPERELDAESPTTLLPEQLVEGEAYEVVLTTQAGLYRYRLGDVVRIVGRYHEAPLMEFLYRRGALLNLMGEKTSEHAARLALEQALATEGLLPADYSVVEETETLPGRYALFVELQEGARPQGAPEQLSRALEEALCRTNPFYEVIRRSERLGAAQLHRVEPGTFQALRDVLVQRGASPTQVKVPRVVRDAELQGLLRQRRVTG
modifications: His-tag
notes: hypothetical protein from Cystobacter fuscus (GH3 protein), His-tagged
Turning to B1, in experiment [1] (5 mM Gly), the Nα-caprinoylglycine detected was determined as 4.6 mM. This molecule also registered a Nα-capryloylglycine detected in experiment [1] (5 mM Gly) of 4.5 mM. This molecule displayed a Nα-lauroylglycine detected in experiment [1] (5 mM Gly) of 0.1 mM. The molecule further showed a Nα-caprinoyl-L-alanine detected in experiment [1] (5 mM L-Ala) of 3.6 mM. Besides, the Nα-capryloyl-L-alanine detected in experiment [1] (5 mM L-Ala) worked out at 3.1 mM. The molecule further registered a Nα-lauroyl-L-alanine detected in experiment [1] (5 mM L-Ala) of 0.4 mM. The “signal of molecular weight corresponding to N-acylamino acid” value is “+” in experiment [2] (substrates Gly and Capric acid); “+” in experiment [2] (substrates Gly and Caproic acid); “+” in experiment [2] (substrates Gly and Caprylic acid); “+” in experiment [2] (substrates Gly and Lauric acid); “−” in experiment [2] (substrates Gly and Linoleic acid); “+” in experiment [2] (substrates Gly and Palmitic acid). Moreover, the “signal of molecular weight corresponding to N-acylamino acid” value in experiment [2] (substrates Gly and myristic acid) is “+”. In addition, the “signal of molecular weight corresponding to N-caprinoyl compound” value in experiment [3] (substrates Carnosine and sodium caprate) is “+”; in experiment [3] (substrates D-Ala and sodium caprate), “+”; in experiment [3] (substrates D-Asp and sodium caprate) it was “+”; in experiment [3] (substrates D-Cys and sodium caprate), “+”; in experiment [3] (substrates D-Glu and sodium caprate), “+”; in experiment [3] (substrates D-Ile and sodium caprate), “+”. For the same molecule, the “signal of molecular weight corresponding to N-caprinoyl compound” value in experiment [3] (substrates D-Lys and sodium caprate) is “+”; in experiment [3] (substrates L-Asp-L-Phe and sodium caprate), “+”; in experiment [3] (substrates L-Gly-L-Gly and sodium caprate), “+”; in experiment [3] (substrates Sarcosine and sodium caprate), “+”; in experiment [3] (substrates Taurine and sodium caprate), “+”.
